# Data taken from patent US20040077828A1 (US Dept. of Health and Human Services, published 2004).
# Where no end group is shown, it is not given here.
# T1: naturally occurring sFRP-1 present in the cultures
# T1 sequence (Q8C4U3 32-314, species assumed, looked up): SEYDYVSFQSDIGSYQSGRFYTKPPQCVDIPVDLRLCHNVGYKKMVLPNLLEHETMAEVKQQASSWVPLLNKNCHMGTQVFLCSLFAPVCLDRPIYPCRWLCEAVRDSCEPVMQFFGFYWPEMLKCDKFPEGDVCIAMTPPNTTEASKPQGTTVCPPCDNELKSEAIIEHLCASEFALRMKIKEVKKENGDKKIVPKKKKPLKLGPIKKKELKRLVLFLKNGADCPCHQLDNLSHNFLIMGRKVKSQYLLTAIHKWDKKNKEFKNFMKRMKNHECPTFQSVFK
# B1: recombinant soluble RANKL (PeproTech) (ligand)
# chain: IRAEKAMVDGSWLDLAKRSKLEAQPFAHLTINATDIPSGSHKVSLSSWYHDRGWAKISNMTFSNGKLIVNQDGFYYLYANICFRHHETSGDLATEYLQLMVYVTKTSIKIPSSHTLMKGGSTKYWSGNSEFHFYSINVGGFFKLRSGEEISIEVSNPSLLDPDQDATYFGAFKVRDID
# notes: Reagent of the ELISA assays; also called sRANKL
# B2: recombinant human secreted Frizzled-related protein-1 (sFRP-1) (other)
# chain: SEYDYVSFQSDIGPYQSGRFYTKPPQCVDIPADLRLCHNVGYKKMVLPNLLEHETMAEVKQQASSWVPLLNKNCHAGTQVFLCSLFAPVCLDRPIYPCRWLCEAVRDSCEPVMQFFGFYWPEMLKCDKFPEGDVCIAMTPPNATEASKPQGTTVCPPCDNELKSEAIIEHLCASEFALRMKIKEVKKENGDKKIVPKKKKPLKLGPIKKKDLKKLVLYLKNGADCPCHQLDNLSHHFLIMGRKVKSQYLLTAIHKWDKKNKEFKNFMKKMKNHECPTFQSVFK
# notes: also called full-length sFRP-1
# Tests used:
# [1] = target: B2; assay: ELISA: serial dilutions of soluble RANKL on sFRP-1-coated, BSA-blocked wells; detection with RANKL antibody, AP-coupled secondary antibody and pNPP
# Description: (§1) ELISA experiments were generally performed as previously described (Uren et al., J. Biol. Chem. 275:4374-4382, 2000), with modifications depending on the sFRP binding partner to be tested. Typically, wells were coated with 0.5 or 1 μg of sFRP-1, blocked with BSA (0.2%, 1%, or 4%) and then incubated with putative binding partner overnight at room temperature. When investigating the binding of peptide/AP chimeras, after aspiration of bacterial broths, wells were washed and incubated with p-nitrophenolphosphate (pNPP). Color development was determined at 405 nm with an ELISA reader. For competition experiments, soluble peptides were preincubated with peptide/AP chimeras in bacterial broth for 30 min at room temperature prior to transfer into ELISA wells coated with sFRP-1 or BSA. When testing RANKL binding to sFRP-1, serial dilutions of soluble RANKL were assayed in replicate. Following overnight incubation at room temperature, RANKL solutions were aspirated and bound RANKL was detected by sequential incubations with primary antibody to RANKL, secondary antibody coupled with AP and pNPP. Similar experimental designs were employed when other TNFα family members were examined for binding to sFRPs, and when sFRP-1 derivatives or sFRP-2 were the binding targets for RANKL.
# (§2) The possibility that sFRP-1 (SEQ ID NO: 3) and RANKL interact directly with each other was tested using an ELISA assay. […]
# [2] = target: T2, bovine serum albumin (bovine, UniProt P02769 25-607); assay: ELISA: serial dilutions of soluble RANKL on wells treated with BSA only; detection with RANKL antibody, AP-coupled secondary antibody and pNPP
# T2 construct: Control coat; also called BSA
# Description: as §1, §2
# [3] = target: B2; assay: phage ELISA, sFRP-1-coated against BSA-coated wells
# Description: Amplified phage recovered from bacterial broth after this first enrichment step were subjected to two more rounds of panning in wells coated with sFRP-1 as described in the previous paragraph, except that the phage were incubated for only 2 hours and 1 hour in the second and third panning steps, respectively. After the third round of panning, phage obtained from the sFRP-1-coated well were titered and seeded on a lawn of bacteria to permit isolation of phage from 200 separate colonies. Bacteria from each of these colonies were grown in broth, pelleted by centrifugation and phage retrieved in the supernatant. Each of these phage supernatants was tested for binding to sFRP-1-coated ELISA wells versus wells only coated with the BSA blocking solution. Phage were detected in this assay with primary antibody directed against phage coat protein (Pharmacia Biotech, Uppsala, Sweden, #27-9411-01) and standard detection reagents.
# To identify peptide sequences that bind sFRP-1, ˜25×10⁹ phages from a library containing a diverse repertoire of twelve-amino acid residue segments linked to the gene III coat protein of M13 phage were screened. After three successive rounds of panning for phage that bound to ELISA wells preincubated with sFRP-1, the phage preparation selected for its ability to bind sFRP-1 was titered and then plated on a lawn of bacteria. Phage from 200 separate colonies of lysed bacteria were picked, grown in bacterial broth overnight, recovered in supernatant, and tested for their ability to bind preferentially to sFRP-1 versus BSA in an ELISA. Phage that bound at least five times more avidly to sFRP-1 than BSA-coated wells were subjected to nucleotide sequence analysis to determine the identity of the peptide sequence responsible for this binding specificity.
# [4] = target: B2; assay: Isothermal titration calorimetry: A-C2 peptide (200 µM in PBS) injected into sFRP-1 (10 µM in PBS); no unit printed in the box
# Description: (§3) ITC experiments were performed with a VP-ITC MicroCalorimeter MicroCal, LLC, Northhampton, Mass.) according to the manufacturer's User Manual. In brief, 6 μl aliquots of A-C2 (200 μM, dissolved in PBS) were injected at regular intervals into a chamber containing sFRP-1 (10 μM, also in PBS). Increases in temperature of the chamber resulting from the binding of A-C2 and sFRP-1 were determined as a measure of the heat produced by the binding reaction. Several parameters, included enthalpy and dissociation constant, were calculated from these measurements. This technique is commonly used to quantify the thermodynamic properties of binding interactions between proteins and peptides.
# (§4) Binding was evident, as heat was generated when aliquots of AC2 solution were added to a chamber containing sFRP-1 dissolved in PBS. By contrast, no heat was produced when AC2 was added to a chamber containing only PBS.
# [5] = target: B2; assay: Isothermal titration calorimetry: A-C2 peptide (200 µM in PBS) injected into sFRP-1 (10 µM in PBS)
# Description: as §3, §4
# [6] = target: T1, naturally occurring sFRP-1 present in …; assay: cell-based or functional assay
# [7] = target: B2; assay: isothermal titration calorimetry, A-C2 (200 uM) injected into sFRP-1 (10 uM) in PBS
# Description: as §3, §4
# [8] = target: T3, alkaline phosphatase itself (UniProt P00634 22-471 = phosphatase, limits assumed); assay: ELISA, sFRP-1-coated wells against BSA wells
# T3 construct: Control for the peptide/AP fusions; also called AP
# [9] = target: B1; assay: ELISA: wells coated with sFRP-1 or derivative, incubated with soluble RANKL, bound RANKL detected; triplicates
# Description: FIG. 12 is a graph of the binding avidity of several sFRP-1 deletion mutants for RANKL in ELISA experiments. Wells were coated either with full-length sFRP-1 or with any one of a set of epitope-tagged sFRP-1 deletion mutants (Uren et al., J Biol Chem 275:4374-4382, 2000) or BSA control, and then sequentially incubated with soluble RANKL and reagents to detect RANKL bound to the wells. The results shown are the mean +/−S.D. of triplicate measurements from a representative experiment.
# ELISA experiments were generally performed as previously described (Uren et al., J. Biol. Chem. 275:4374-4382, 2000), with modifications depending on the sFRP binding partner to be tested. Typically, wells were coated with 0.5 or 1 μg of sFRP-1, blocked with BSA (0.2%, 1%, or 4%) and then incubated with putative binding partner overnight at room temperature. When investigating the binding of peptide/AP chimeras, after aspiration of bacterial broths, wells were washed and incubated with p-nitrophenolphosphate (pNPP). Color development was determined at 405 nm with an ELISA reader. […] Following overnight incubation at room temperature, RANKL solutions were aspirated and bound RANKL was detected by sequential incubations with primary antibody to RANKL, secondary antibody coupled with AP and pNPP. […]
# T3 sequence (P00634 22-471 limits assumed): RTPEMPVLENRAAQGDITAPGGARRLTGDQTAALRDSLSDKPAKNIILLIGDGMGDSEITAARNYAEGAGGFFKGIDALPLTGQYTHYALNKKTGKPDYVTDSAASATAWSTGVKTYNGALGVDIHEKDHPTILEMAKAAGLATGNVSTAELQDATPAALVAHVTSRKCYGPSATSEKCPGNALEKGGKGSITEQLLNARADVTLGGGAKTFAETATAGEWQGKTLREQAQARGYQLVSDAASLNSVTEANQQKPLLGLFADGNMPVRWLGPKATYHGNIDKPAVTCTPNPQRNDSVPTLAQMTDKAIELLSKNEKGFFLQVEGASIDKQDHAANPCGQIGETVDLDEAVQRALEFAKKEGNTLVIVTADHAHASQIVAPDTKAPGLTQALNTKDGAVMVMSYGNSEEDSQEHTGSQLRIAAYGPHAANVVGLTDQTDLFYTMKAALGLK
# T2 sequence (P02769 25-607 limits assumed): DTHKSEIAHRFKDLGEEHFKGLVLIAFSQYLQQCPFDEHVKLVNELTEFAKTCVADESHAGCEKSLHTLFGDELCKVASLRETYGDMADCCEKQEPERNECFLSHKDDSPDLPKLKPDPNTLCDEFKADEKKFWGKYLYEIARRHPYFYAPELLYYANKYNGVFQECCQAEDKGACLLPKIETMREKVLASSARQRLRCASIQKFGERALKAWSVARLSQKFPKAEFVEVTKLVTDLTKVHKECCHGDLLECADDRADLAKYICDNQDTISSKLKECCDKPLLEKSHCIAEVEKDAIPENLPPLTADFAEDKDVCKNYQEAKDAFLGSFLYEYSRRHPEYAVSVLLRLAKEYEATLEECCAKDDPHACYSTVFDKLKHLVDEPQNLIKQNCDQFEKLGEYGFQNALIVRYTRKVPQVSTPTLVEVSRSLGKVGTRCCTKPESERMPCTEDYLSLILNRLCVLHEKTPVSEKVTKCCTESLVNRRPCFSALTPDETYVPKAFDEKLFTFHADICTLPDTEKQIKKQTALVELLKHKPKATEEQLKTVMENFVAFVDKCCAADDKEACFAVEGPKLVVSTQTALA
binder,measurement,setting,value
B1,EC50 (read off the curve),[1],~1 µg/mL
same,binding result,[2],no binding (tested: 10 ug/ml)
"VVDGRWVQGLED (other, not fully specified, Printed as VVDGRWVQGLED; also called A-E4 phage; not shown: M13 phage gene III coat protein) [A-E4-expressing M13 phage (peptide linked to gene III coat protein)]",Specificity (sFRP-1/BSA),[3],10 ratio of binding to sFRP-1 wells over BSA wells
"QGTLVDGRWLQL (other, not fully specified, also called A-C2 phage; not shown: M13 phage gene III coat protein) [A-C2-expressing M13 phage (peptide linked to gene III coat protein)]",Specificity (sFRP-1/BSA),[3],10 ratio of binding to sFRP-1 wells over BSA wells
"LVDGRWLYNPHH (other, not fully specified, the text gives 27; also called B-B9 phage; not shown: M13 phage gene III coat protein) [B-B9 M13 phage (peptide linked to gene III coat protein)]",Specificity (sFRP-1/BSA),[3],5 ratio of binding to sFRP-1 wells over BSA wells
QGTLVDGRWLQL (also called AC2 peptide) [A-C2 synthetic 12-mer peptide],ΔH,[4],-3620
same,ΔS,[4],12.6
same,N,[5],1.14
same,"TRAP+ multinucleated cells, osteoblast and adult spleen cell co-cultures",[6],10 fold increase
same,Kd,[7],3.9 µM
B2,binding result,[8],no binding
"ΔCRD-H/M (other, the sheet prints H/M, the text M/H; also called human sFRP-ΔCRD-M/H; sFRP-1 derivative lacking the CRD) single chain: EYDYVSFQSDIGPYQSGRFYTKPPQIAMTPPNATEASKPQGTTVCPPCDNELKSEAIIEHLCASEFALRMKIKEVKKENGDKKIVPKKKKPLKLGPIKKKDLKKLVLYLKNGADCPCHQLDNLSHHFLIMGRKVKSQYLLTAIHKWDKKNKEFKNFMKKMKNHECPTFQSVFKQAYVEQKLISEEDLNSAVDHHHHHH",binding result,[9],no binding
